Test results as given in patent US20080181887A1.

Target: human FcRn (human)
Test: BIAcore SPR, soluble IgG over immobilized human FcRn, pH 6.0; reference purified cynomolgus monkey IgG

Sequence of human FcRn (human) (chain, as listed by the source limits assumed, chain 1 of 2): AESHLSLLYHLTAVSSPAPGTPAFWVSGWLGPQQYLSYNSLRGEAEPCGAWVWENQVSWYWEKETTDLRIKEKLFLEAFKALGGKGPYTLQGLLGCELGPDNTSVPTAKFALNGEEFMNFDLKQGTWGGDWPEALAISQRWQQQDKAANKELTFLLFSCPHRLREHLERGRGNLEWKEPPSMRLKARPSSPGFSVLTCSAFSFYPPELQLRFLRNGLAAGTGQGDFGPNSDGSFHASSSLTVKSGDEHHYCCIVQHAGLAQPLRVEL
Sequence of human FcRn (human) (P61769 21-119 limits assumed, chain 2 of 2): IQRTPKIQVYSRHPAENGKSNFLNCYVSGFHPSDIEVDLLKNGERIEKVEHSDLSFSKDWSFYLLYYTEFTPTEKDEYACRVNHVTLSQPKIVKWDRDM

humanized anti-RSV monoclonal antibody MEDI-524 (from UniProt P01857 1-330)
ratio of the human over cynomolgus IgG concentrations at Req50%: 0.9
